Measured values: patent publication US20120172578A1 (VLAAMS INTERUNIVERSITAIR INSTITUUT VOOR BIOTECHNOLOGIE, published 2012)
Numbering of substitutions follows the chain as printed. In names and notes the source's numbering stands.

Experiments:
[1] = target: T1, Prostate Specific Antigen (UniProt P07288 25-261); assay: column 'Antigen recognized by antibody'
T1 construct: also called PSA

β-lactamase = assay: BIAcore
human serum albumin = target: T2, human serum albumin (human, UniProt P02768 25-609); assay: column 'Antigen recognized by antibody'
T2 construct: also called HSA
T2 sequence (P02768 25-609 limits assumed): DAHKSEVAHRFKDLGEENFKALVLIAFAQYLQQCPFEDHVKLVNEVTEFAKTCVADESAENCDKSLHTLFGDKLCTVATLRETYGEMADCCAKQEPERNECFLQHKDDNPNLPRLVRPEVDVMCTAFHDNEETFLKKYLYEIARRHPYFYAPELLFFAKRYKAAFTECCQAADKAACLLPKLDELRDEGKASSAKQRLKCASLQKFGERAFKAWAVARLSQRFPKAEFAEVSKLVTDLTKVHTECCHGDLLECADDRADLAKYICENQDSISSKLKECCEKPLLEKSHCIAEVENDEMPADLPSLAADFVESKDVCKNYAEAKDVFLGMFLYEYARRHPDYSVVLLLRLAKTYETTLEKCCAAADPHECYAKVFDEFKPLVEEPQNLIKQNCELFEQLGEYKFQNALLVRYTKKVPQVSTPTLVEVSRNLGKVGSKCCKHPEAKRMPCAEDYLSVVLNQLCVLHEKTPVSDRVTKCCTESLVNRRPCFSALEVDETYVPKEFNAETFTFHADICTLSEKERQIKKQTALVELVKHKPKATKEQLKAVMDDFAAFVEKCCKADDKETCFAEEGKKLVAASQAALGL

[2] = target: humanized mouse mAb to CD40; assay: BIAcore
[3] = target: T1, Prostate Specific Antigen; assay: BIAcore
[4] = target: T3, Carcino Embryonic Antigen (UniProt P06731 35-685, limits assumed); assay: column 'Antigen recognized by antibody'
T3 construct: also called CEA; CEA tumor antigen
T3 sequence (looked up): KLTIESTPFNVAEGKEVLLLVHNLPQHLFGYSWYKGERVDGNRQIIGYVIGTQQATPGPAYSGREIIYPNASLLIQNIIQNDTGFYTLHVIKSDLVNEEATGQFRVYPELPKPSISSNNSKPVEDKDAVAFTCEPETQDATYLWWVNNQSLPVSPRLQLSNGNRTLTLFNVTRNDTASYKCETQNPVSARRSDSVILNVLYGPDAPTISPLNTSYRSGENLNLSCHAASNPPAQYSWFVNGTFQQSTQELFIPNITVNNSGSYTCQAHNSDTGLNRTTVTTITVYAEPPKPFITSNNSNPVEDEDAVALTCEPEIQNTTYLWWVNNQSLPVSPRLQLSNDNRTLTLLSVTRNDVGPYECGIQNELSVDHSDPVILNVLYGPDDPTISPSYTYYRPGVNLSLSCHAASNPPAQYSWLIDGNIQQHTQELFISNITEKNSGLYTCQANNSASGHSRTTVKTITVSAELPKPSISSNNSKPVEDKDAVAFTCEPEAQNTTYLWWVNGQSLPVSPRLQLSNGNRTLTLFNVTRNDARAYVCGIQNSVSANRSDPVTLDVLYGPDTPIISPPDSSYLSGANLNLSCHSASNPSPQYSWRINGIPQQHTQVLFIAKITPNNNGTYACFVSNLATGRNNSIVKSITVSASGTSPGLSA

TEM1 [5] = target: T4, TEM1 (UniProt P62593 24-286); assay: column 'Antigen recognized by antibody'
T4 construct: also called β-lactamase; b-lactamase
T4 sequence (P62593 24-286 limits assumed): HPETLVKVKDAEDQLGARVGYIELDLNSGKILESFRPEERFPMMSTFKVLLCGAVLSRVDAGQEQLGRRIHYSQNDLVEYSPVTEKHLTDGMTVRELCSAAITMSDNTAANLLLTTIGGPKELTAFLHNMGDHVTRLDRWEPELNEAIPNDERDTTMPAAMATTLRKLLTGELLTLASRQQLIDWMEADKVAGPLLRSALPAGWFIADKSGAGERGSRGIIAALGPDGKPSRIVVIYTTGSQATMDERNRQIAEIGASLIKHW

TEM1 [6] = target: T4, TEM1; assay: IMAC co-purification, Coomassie stained PAGE
[7] = target: T3, Carcino Embryonic Antigen; assay: ELISA on coated CEA
Experimental: A microtiter plate (Maxisorp, NUNC) was coated overnight at 4° C. with CEA (Scripps) at a concentration of 1 μg/ml (in PBS), and blocked for two hours at room temperature (RT) with 300 μl 1% casein in PBS. The plates were washed three times with PBS-tween. […] Plates were washed six times with PBS-tween, after which binding of VHH was detected by incubation with mouse anti-Histidine mAB (Serotec; 1:1000 diluted; 100 μl/well) for 1 hour at RT followed by anti-mouse-alkaline phosphatase conjugate (Sigma, 1:2000 diluted), also for 1 hour at RT. Staining was performed with the substrate PNPP (p-nitrophenyl-phosphate, 2 mg/ml in 1M diethanolamine, 1 mM Mg₂SO₄, pH9.8) and the signals were measured after 30 minutes at 405 nm.

T1 sequence (P07288 25-261 limits assumed): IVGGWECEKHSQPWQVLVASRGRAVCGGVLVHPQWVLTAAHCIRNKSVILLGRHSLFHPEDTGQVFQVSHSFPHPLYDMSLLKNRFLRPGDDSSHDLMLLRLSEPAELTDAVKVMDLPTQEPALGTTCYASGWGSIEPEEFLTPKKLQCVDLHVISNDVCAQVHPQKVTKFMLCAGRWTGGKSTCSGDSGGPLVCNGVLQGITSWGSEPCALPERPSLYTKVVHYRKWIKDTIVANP

B1: N15-B (VHH)
VHH: DVQLQESGGGSVQAGGSLRLACAATAYTYDSNVLGWFRQAPGKEHEGVAVIYTGTRTTYYADSVKGRFTISQDNAKNTVYLQMNSLKPGDTAMYFCAANVRLGGVWSFDYRGQGTQVTVSS
notes: Dromedary single domain; purified on Ni-NTA
binding result [1]: binds

B2: cAbBLA01 (VHH)
VHH: QLQLVESGGGSVQSGGSLRLSCKVSGYIGSTNCMGWFRQAPGKEREGVASLFTGSGNTYYGDSVKGRFTISEDNAKNTVSLQMNSLKPEDTAMYYCASSSNVGSDESCGRKNTRQFVYTYQGQGTQVTVSS
Kd (β-lactamase): < 1 nM

B3: ALB-1 (VHH)
VHH: QVQLQESGGGLVQPGGSLRLSCAASGFAFSSFPMTWVRQAPGKGLEWVSGILEGGGSPAYADSVKGRFTISRDDAKNTLYLQMNSLKPEDTAVYYCAKGYVYAREGARSQGTQVTVSS
notes: Llama single domain; purified on Ni-NTA
binding result (human serum albumin): binds

B4: CD40-1 (VHH)
VHH: QVQLVESGGGLVQPGGSLRLSCAASGFAFSRYSMYWVRQAPGKGLEWVSEIYPDGNGWYTSSVKGRFTISRDNDKNMLYLQMNSLKPDDTAVYYCALSRSGQGRGQGTRVTVSS
Kd [2]: 2 nM

B5: C9-B (VHH)
VHH: DVQLQESGGGLVQPGGSLRLSCAASGFTFSNHYMTWVRQAPGKGLEWVSVISNDGRYTDYADSVKGRFTISRDNAKNTLYLQMNSLKTEDTALYTCVRGYYLTNLPAGDRGQGTQVTVSS
notes: as for B1
Kd [3]: 3.9 nM

B6: C24-A (VHH)
VHH: B5 VHH with T28A, S30T, N31P, H32S, T35S
notes: as for B1
binding result [1]: binds

B7: N13-A (VHH)
VHH: DVQLQESGGGSVQPGGSLRLSCAASGFTFKDASMNWVRQAPGKGLEWVSAINGGGTVTDYADPMEGRFTISRDNAKNTLYLQMNSLNFEDTALYYCATGWLFRANNYRGQGTQVTVSS
notes: as for B1
binding result [1]: binds

B8: ALB-2 (VHH)
VHH: QVQLQESGGGLVQPGGSLRLTCTASGFAFSNFGMSWVRQPPGKGLEWVSAISADSSTKNYADSVKGRFTISRDNTKKMLYLEMNSLKPEDTAVYHCVIGRGSASSQGTQVTVSS
notes: as for B3
binding result (human serum albumin): binds

B9: ALB-5 (VHH)
VHH: B8 VHH with N31S, T75D, S85K, A103P
notes: as for B3
binding result (human serum albumin): binds

B10: N3-A (VHH)
VHH: DVQLQESGGSLVQPGGSLRLSCAASGFTFSAYYMIWVRQAPGKGLEWVSGISANGRDTLYEDSVEGRFAISRDNAKNTLYLQMNSLRSEDTALYYCVIGALITGRRGQGTQVTVSS
notes: as for B1
binding result [1]: binds

B11: C11-B (VHH)
VHH: B10 VHH with S10G, T28I, A31N, Y32T, I35T, N54D, E61A, I98T, I102M
notes: as for B1
Kd [3]: 2.6 nM

B12: CEA1 (VHH)
VHH: QVQLVESGGGLVQPGGSLRLSCAASGFTFSKYDMSWVRQAPGKGLEWVSRISSGGGSTYYADSVKGRFTISRDNAKNTLYLQMNSLKPEDTAVYYCATPTYSSDYRGLPPGQGTQVTVSS
notes: as for B1
binding result [4]: binds

B13: ALB-3 (VHH)
VHH: QVQLQESGGGLVQPGNSLRLSCAASGFAFGNFGMSWVRQAPGKEPEWVSSIDSIGSDTLYADFVKGRFTISRDNAKSTLYLQMNSLKPEDTAVYYCTIGGSLSRSSQGTQVTVSS
notes: as for B3
binding result (human serum albumin): binds

B14: ALB-4 (VHH)
VHH: QVQLQESGGGLVQPGNSLRLSCAASGFSFRSFGMSWVRQAPGKGPEWVSSINSSGDDTRYTDSVKGRFTISRDNAKSTLYLQMNSLKPEDTAVYYCTIGSSISRSSQGTQVTVSS
notes: as for B3
binding result (human serum albumin): binds

B15: C1-B (VHH)
VHH: DVQLQESGGGLVQPGGSLRLSCAASGFTFSTSYMTWARQAPGKGLEWVSGINRDGNNPLYADSVEGRFTVSRDNAKNTLYLQMNSLKSEDTALYYCVAGALVAGARGQGTQVTVSS
notes: as for B1
Kd [3]: 0.8 nM

B16: N8-B (VHH)
VHH: DVQLQESGGGLVQPGGSLRLSCAASGFLFSDTYMTWARQAPGKGLEWLGGISKDGSGTLYEDSVEGRFTISRDNAKNTLYLQMNSLKSEDTALYYCSTGALLPTRPQGQGTQVTVSS
notes: as for B1
Kd [3]: 1.6 nM

B17: C12-A (VHH)
VHH: B16 VHH with Q13R, D31G, G49C, S52N, E61A, I70C
notes: as for B1
Kd [3]: 2.6 nM

B18: anti-β-lactamase VHH TEM04 (wild type) (VHH)
VHH: QVQLVESGGGLVQAGGSLRLSCAASGFTFSSAWMTWVRQAPGKGLEWVTSIATDGSTDYADSVKGRFTISRDNAKNTLYLQLNSLNTEDTAVYYCAKDRWGYVVRGQGTQVTVSS
notes: also called cAbTEM04
binding result (TEM1 [5]): binds

B19: anti-β-lactamase VHH TEM04 R103W mutant (VHH)
VHH: B18 VHH with R105W
notes: also called VHH TEM04 mutant; TEM04 W (mutant)
binding result (TEM1 [6]): binds

B20: anti-carcinoembryonic antigen VHH CEA71 (wild type) (VHH)
VHH: QVQLVESGGGLVQPGGSLRLSCAASGFTFSSSYMSWVRQAPGKGLEWVSGINTDGSFTRYADSVKGRFTISRDNAKNTLYLQMNSLKSEDTALYYCAVGGGLGYGPRGQGTLVTVSS
notes: also called CEA71 WT; CEA wild type VHH
fold lower concentration at which it binds, against the R103W mutant [7]: ~10 fold

B21: CEA72 (VHH)
VHH: B20 VHH with G26E, L112Q
notes: as for B1
binding result [4]: binds
